In patent US20060046250A1 (SEOUL NATIONAL UNIVERSITY INDUSTRY FOUNDATION, published 2006):

Biological target: T1, GST-AIM3 fusion protein (human, UniProt O43324 1-174)
T1 construct: Immobilised on glutathione-sepharose beads; also called GST-fused AIM3; GST-fused AIM3 protein; not shown: glutathione S-transferase (GST) fusion partner from the Pharmacia system; The vector, the linker and the order of the fu
T1 sequence: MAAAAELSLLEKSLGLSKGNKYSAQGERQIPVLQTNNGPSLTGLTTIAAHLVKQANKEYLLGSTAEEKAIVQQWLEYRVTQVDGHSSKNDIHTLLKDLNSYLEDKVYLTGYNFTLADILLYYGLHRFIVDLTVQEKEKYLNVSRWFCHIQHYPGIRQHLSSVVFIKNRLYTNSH
Experiment: GST pull-down of in vitro translated, radiolabelled fragment, autoradiography
Text: First, AIM3 was expressed as GST fusion protein and purified according to the manufacturer's protocol (Pharmacia). Meanwhile, since it was difficult to synthesize the whole ATM due to its large size, the present inventors tested the interaction between the functional domain of ATM and AIM3. For this purpose, a fragment consisting of 612 amino acids, including the FAT domain of an ATM structure, was amplified by PCR with primers shown in SEQ ID NO: 12 and SEQ ID NO: 13. Also, a fragment (control group) consisting of 145 amino acids, including the C-terminal domain, was amplified by PCR with primers shown in SEQ ID NO: 14 and SEQ ID NO: 15. Then, the amplified PCR products were subdloned into pcDNA3.1 (Invitrogen), a vector suitable for in vitro transcription and […]. At this time, the protein was synthesized by in vitro translation in the presence of radioactive methionine. 10 μl of the synthesized TNT product was incubated with the GST- or GST-AIM3 fusion protein-immobilized glutathion-sepharose beads for 5 minutes. Then, the beads were washed six times with a binding buffer (PBS containing 0.2% sarcosine and 0.2% Triton X100), and dissolved in 10% SDS-PAGE. The binding of the GST-fused AIM3 to each domain was determined by autoradiography.

B1: ATM fragment consisting of 145 amino acids, including the C-terminal domain (other, UniProt Q13315 2912-3056, looked up)
chain: RDIVDGMGITGVEGVFRRCCEKTMEVMRNSQETLLTIVEVLLYDPLFDWTMNPLKALYLQQRPEDETELHPTLNADDQECKRNLSDIDQSFNKVAERVLMRLQEKLKGVEEGTVLSVGGQVNLLIQQAIDPKNLSRLFPGWKAWV
modifications: radioactive methionine (in vitro translated)
notes: domain: C-terminal domain; Made by in vitro transcription and translation from pcDNA3.1; Its limits are set only by the PCR primers; also called C-terminal domain of ATM; control group fragment
binding result: no binding
